The numbers were not newly measured in patent US12514928B2, “Herboxidiene antibody-drug conjugates and methods of use” (Eisai R&D Management Co., Ltd., priority 2018, dated 2026), which cites them from elsewhere.

The conditions of this series: in vivo; cited from earlier work.

On to “tremelimumab: fully human anti-CTLA4 antibody, IgG2”, for which the plasma half-life result is reported as “approximately 22 days”.
